{"source": "patent US20220119549A1", "about": "(TAVOTEK BIOTHERAPEUTICS HONG KONG, published 2022)", "binders": {"B1": {"name": "TAVO271272 after digestion by MMP2 (antibody)", "heavy": "EVQLVESGGGLVQPGGSLRLSCAASGFDFADYAMHWVRQAPGKGLEWVSAITWNGGHTDYADSVKGRFTISRDNSKNTLYLQMNSLRAEDTAVYYCAKVSYLSTASSLDYWGQGTLVTVSSASTKGPSVFPLAPSSKSTSGGTAALGCLVKDYFPEPVTVSWNSGALTSGVHTFPAVLQSSGLYSLSSVVTVPSSSLGTQTYICNVNHKPSNTKVDKKVEPKSCDKTHTCPPCPAPPAAGPSVFLFPPKPKDTLMISRTPEVTCVVVDVSHEDPEVKFNWYVDGVEVHNAKTKPREEQYNSTYRVVSVLTVLHQDWLNGKEYKCKVSNKALPAPIEKTISKAKGQPREPQVYTLPPSRDELTKNQVSLTCLVKGFYPSDIAVEWESNGQPENNYKTTPPVLDSDGSFLLYSKLTVDKSRWQQGNVFSCSVLHEALHSHYTQKSLSLSPGK", "light": "not shown", "notes": "the antibody part is that of TAVO167127 (EAC271/EAC272 are identical to EAC190/EAC191 but for the IGF2 mutations); not shown: remnant of the protease-cleavable linker left after cleavage"}, "B2": {"name": "TAVO186187 after digestion by MMP2 (antibody)", "heavy": "B1 heavy", "light": "not shown", "notes": "also called digested shielded antibody; digested TAVO186187; not shown: remnant of the protease-cleavable linker left after cleavage"}, "B3": {"name": "TAVO188189 after digestion by MMP2 (antibody)", "heavy": "B1 heavy", "light": "not shown", "notes": "also called digested shielded antibody; digested TAVO188189; not shown: remnant of the protease-cleavable linker left after cleavage"}, "B4": {"name": "TAVO190191 after digestion by MMP2 (antibody)", "heavy": "B1 heavy", "light": "not shown", "notes": "also called digested shielded antibody; digested TAVO190191; not shown: remnant of the protease-cleavable linker left after cleavage"}, "B5": {"name": "TAVO192193 after digestion by MMP2 (antibody)", "heavy": "B1 heavy", "light": "not shown", "notes": "also called digested shielded antibody; digested TAVO192193; not shown: remnant of the protease-cleavable linker left after cleavage"}, "B6": {"name": "TAVO194195 after digestion by MMP2 (antibody)", "heavy": "B1 heavy", "light": "not shown", "notes": "also called digested shielded antibody; digested TAVO194195; not shown: remnant of the protease-cleavable linker left after cleavage"}, "B7": {"name": "TAVO196197 after digestion by MMP3 (antibody)", "heavy": "B1 heavy", "light": "not shown", "notes": "also called digested shielded antibody; digested TAVO196197; not shown: remnant of the protease-cleavable linker left after cleavage"}, "B8": {"name": "TAVO198199 after digestion by uPA (antibody)", "heavy": "B1 heavy", "light": "not shown", "notes": "also called digested shielded antibody; digested TAVO198199; not shown: remnant of the protease-cleavable linker left after cleavage"}, "B9": {"name": "TAVO580585 (antibody, human IgG1, kappa)", "heavy": "GILEECCFRSCDLALLETYCAGGGGSPLGLAGGGGGSEVQLVESGGGLVQPGGSLRLSCAASGFTFDDYAMHWVRQAPGKGLEWVSAITWNSGHIDYADSVKGRFTISRDNSKNTLYLQMNSLRAEDTAVYYCAKVSYLSTASSLDYWGQGTLVTVSSASTKGPSVFPLAPSSKSTSGGTAALGCLVKDYFPEPVTVSWNSGALTSGVHTFPAVLQSSGLYSLSSVVTVPSSSLGTQTYICNVNHKPSNTKVDKKVEPKSCDKTHTCPPCPAPPAAGPSVFLFPPKPKDTLMISRTPEVTCVVVDVSHEDPEVKFNWYVDGVEVHNAKTKPREEQYNSTYRVVSVLTVLHQDWLNGKEYKCKVSNKALPAPIEKTISKAKGQPREPQVYTLPPSRDELTKNQVSLTCLVKGFYPSDIAVEWESNGQPENNYKTTPPVLDSDGSFLLYSKLTVDKSRWQQGNVFSCSVLHEALHSHYTQKSLSLSPGK", "light": "AYRPSETLCGGELVDTLQFVCGDRGFAFGGGGSPLGLAGGGGGSDIVMTQSPDSLAVSLGERATINCRASQGIRNYLAWYQQKPGQAPKLLIYAASTLQSGVPDRFSGSGSGTDFTLTISSLQAEDVAVYYCQRYNRAPYTFGQGTKVEIKRTVAAPSVFIFPPSDEQLKSGTASVVCLLNNFYPREAKVQWKVDNALQSGNSQESVTEQDSKDSTYSLSSTLTLSKADYEKHKVYACEVTHQGLSSPVTKSFNRGEC", "notes": "Variant IGF2 mask; ADA-H2 / ADA-L2; also called EAC580/EAC585"}, "B10": {"name": "TAVO584585 (antibody, human IgG1, kappa)", "heavy": "B9 heavy with E38Q, L48V, T65D, D67A, S92G, I95T", "light": "B9 light", "notes": "Variant IGF2 mask; ADA-H4X / ADA-L2; also called EAC584/EAC585"}, "B11": {"name": "TAVO186187 (antibody, human IgG1, kappa)", "heavy": "GIVEECCFRSCDLALLETYCAGGGGSGPLGVRGGGGSEVQLVESGGGLVQPGGSLRLSCAASGFDFADYAMHWVRQAPGKGLEWVSAITWNGGHTDYADSVKGRFTISRDNSKNTLYLQMNSLRAEDTAVYYCAKVSYLSTASSLDYWGQGTLVTVSSASTKGPSVFPLAPSSKSTSGGTAALGCLVKDYFPEPVTVSWNSGALTSGVHTFPAVLQSSGLYSLSSVVTVPSSSLGTQTYICNVNHKPSNTKVDKKVEPKSCDKTHTCPPCPAPPAAGPSVFLFPPKPKDTLMISRTPEVTCVVVDVSHEDPEVKFNWYVDGVEVHNAKTKPREEQYNSTYRVVSVLTVLHQDWLNGKEYKCKVSNKALPAPIEKTISKAKGQPREPQVYTLPPSRDELTKNQVSLTCLVKGFYPSDIAVEWESNGQPENNYKTTPPVLDSDGSFLLYSKLTVDKSRWQQGNVFSCSVLHEALHSHYTQKSLSLSPGK", "light": "not shown", "notes": "Undigested; IGF2 A chain - MMP2/9 linker (GPLGVR) - heavy chain (ADA-H2X, IgG1 Fc mutant); IGF2 B chain - linker - light chain (ADA-L1); also called anti-TNFα shielded antibody with IGF2-based masking domain; EAC186/EAC187"}, "B12": {"name": "TAVO188189 (antibody, human IgG1, kappa)", "heavy": "B11 heavy with G27P, P28L, L29G, G30L, V31A", "light": "not shown", "notes": "Undigested; MMP2/9 substrate PLGLAR; also called anti-TNFα shielded antibody with IGF2-based masking domain; EAC188/EAC189"}, "B13": {"name": "TAVO190191 (antibody, human IgG1, kappa)", "heavy": "B9 heavy with L3V, T65D, D67A, S92G, I95T", "light": "not shown", "notes": "Undigested; Native IGF2 A and B chains, MMP2/9 substrate PLGLAG; also called anti-TNFα shielded antibody with IGF2-based masking domain; EAC190/EAC191"}, "B14": {"name": "TAVO192193 (antibody, human IgG1, kappa)", "heavy": "GIVEECCFRSCDLALLETYCAGGGGSIPVSLRSGGGGGSEVQLVESGGGLVQPGGSLRLSCAASGFDFADYAMHWVRQAPGKGLEWVSAITWNGGHTDYADSVKGRFTISRDNSKNTLYLQMNSLRAEDTAVYYCAKVSYLSTASSLDYWGQGTLVTVSSASTKGPSVFPLAPSSKSTSGGTAALGCLVKDYFPEPVTVSWNSGALTSGVHTFPAVLQSSGLYSLSSVVTVPSSSLGTQTYICNVNHKPSNTKVDKKVEPKSCDKTHTCPPCPAPPAAGPSVFLFPPKPKDTLMISRTPEVTCVVVDVSHEDPEVKFNWYVDGVEVHNAKTKPREEQYNSTYRVVSVLTVLHQDWLNGKEYKCKVSNKALPAPIEKTISKAKGQPREPQVYTLPPSRDELTKNQVSLTCLVKGFYPSDIAVEWESNGQPENNYKTTPPVLDSDGSFLLYSKLTVDKSRWQQGNVFSCSVLHEALHSHYTQKSLSLSPGK", "light": "not shown", "notes": "Undigested; also called anti-TNFα shielded antibody with IGF2-based masking domain; EAC192/EAC193"}, "B15": {"name": "TAVO194195 (antibody, human IgG1, kappa)", "heavy": "B14 heavy with I27G, V29L, S30G, L31M, R32L, G34Q", "light": "not shown", "notes": "also called anti-TNFα shielded antibody with IGF2-based masking domain; EAC194/EAC195"}, "B16": {"name": "TAVO196197 (antibody, human IgG1, kappa)", "heavy": "GIVEECCFRSCDLALLETYCAGGGGSRPKPVEVWRKGGGGSEVQLVESGGGLVQPGGSLRLSCAASGFDFADYAMHWVRQAPGKGLEWVSAITWNGGHTDYADSVKGRFTISRDNSKNTLYLQMNSLRAEDTAVYYCAKVSYLSTASSLDYWGQGTLVTVSSASTKGPSVFPLAPSSKSTSGGTAALGCLVKDYFPEPVTVSWNSGALTSGVHTFPAVLQSSGLYSLSSVVTVPSSSLGTQTYICNVNHKPSNTKVDKKVEPKSCDKTHTCPPCPAPPAAGPSVFLFPPKPKDTLMISRTPEVTCVVVDVSHEDPEVKFNWYVDGVEVHNAKTKPREEQYNSTYRVVSVLTVLHQDWLNGKEYKCKVSNKALPAPIEKTISKAKGQPREPQVYTLPPSRDELTKNQVSLTCLVKGFYPSDIAVEWESNGQPENNYKTTPPVLDSDGSFLLYSKLTVDKSRWQQGNVFSCSVLHEALHSHYTQKSLSLSPGK", "light": "not shown", "notes": "Undigested; also called anti-TNFα shielded antibody with IGF2-based masking domain; EAC196/EAC197"}, "B17": {"name": "TAVO198199 (antibody, human IgG1, kappa)", "heavy": "B14 heavy with I27L, P28S, V29G, S30R, L31S, R32D, S33N, G34H", "light": "not shown", "notes": "also called anti-TNFα shielded antibody with IGF2-based masking domain; EAC198/EAC199"}, "B18": {"name": "TAVO167127 (antibody, human IgG1, kappa)", "heavy": "B1 heavy", "light": "not shown", "notes": "Control antibody, ADA-H2X / ADA-L1 variable domains, IgG1 Fc with E233P, L234A, L235A, F405L, M428L, N434S and G236 deleted; also called active anti-TNFα antibody without the IGF2-based masking domain; unmasked anti-TNFα antibody"}}, "note": "Where a chain is given by its changes, count along the chain named. Names and notes keep the numbering of the source.", "data": [{"target": "T1, recombinant human TNFα (human, UniProt P01375 77-233)", "T1 construct": "Bought protein", "T1 sequence (P01375 77-233 limits assumed)": "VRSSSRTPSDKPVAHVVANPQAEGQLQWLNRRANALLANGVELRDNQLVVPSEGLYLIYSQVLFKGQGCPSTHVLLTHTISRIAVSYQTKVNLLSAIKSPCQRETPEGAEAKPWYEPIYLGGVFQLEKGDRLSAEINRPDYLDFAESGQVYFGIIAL", "test": "ELISA on human TNFα, after MMP2 cleavage", "method": "(§1) In this assay, 1 μg/mL recombinant human TNFα (R&D systems) was coated on an ELISA plate. Increasing concentrations of anti-TNFα shielded antibodies were applied on the plate and their binding to the recombinant human TNFα was detected by HRP-conjugated anti-human secondary antibody.", "values": [{"binder": "B1", "binding result": "binds"}]}, {"target": "T1, recombinant human TNFα", "test": "ELISA, recombinant human TNFα coated at 1 µg/mL, after protease cleavage", "method": "as §1", "values": [{"binder": "B2", "binding result": "binds"}, {"binder": "B3", "binding result": "binds"}, {"binder": "B4", "binding result": "binds"}, {"binder": "B5", "binding result": "binds"}, {"binder": "B6", "binding result": "binds"}, {"binder": "B7", "binding result": "binds"}, {"binder": "B8", "binding result": "binds"}]}, {"target": "T1, recombinant human TNFα", "test": "ELISA on human TNFα", "values": [{"binder": "B9", "binding result": "binds"}, {"binder": "B10", "binding result": "binds"}]}, {"target": "T1, recombinant human TNFα", "test": "cell-based or functional assay", "units": {"HEK-Blue TNFα reporter assay: potency in blocking TNFα functional activity, fold lower than TAVO167127": "fold"}, "values": [{"binder": "B11", "HEK-Blue TNFα reporter assay: potency in blocking TNFα functional activity, fold lower than TAVO167127": "~50"}, {"binder": "B12", "HEK-Blue TNFα reporter assay: potency in blocking TNFα functional activity, fold lower than TAVO167127": "~50"}, {"binder": "B13", "HEK-Blue TNFα reporter assay: potency in blocking TNFα functional activity, fold lower than TAVO167127": "~50"}, {"binder": "B14", "HEK-Blue TNFα reporter assay: potency in blocking TNFα functional activity, fold lower than TAVO167127": "~50"}, {"binder": "B15", "HEK-Blue TNFα reporter assay: potency in blocking TNFα functional activity, fold lower than TAVO167127": "~50"}, {"binder": "B16", "HEK-Blue TNFα reporter assay: potency in blocking TNFα functional activity, fold lower than TAVO167127": "~50"}, {"binder": "B17", "HEK-Blue TNFα reporter assay: potency in blocking TNFα functional activity, fold lower than TAVO167127": "~50"}]}, {"target": "T1, recombinant human TNFα", "test": "ELISA, recombinant human TNFα coated at 1 µg/mL, HRP anti-human secondary", "method": "as §1", "units": {"fold lower binding affinity than TAVO167127": "fold"}, "values": [{"binder": "B11", "fold lower binding affinity than TAVO167127": "≥ 5"}, {"binder": "B12", "fold lower binding affinity than TAVO167127": "≥ 5"}, {"binder": "B13", "fold lower binding affinity than TAVO167127": "≥ 5"}, {"binder": "B14", "fold lower binding affinity than TAVO167127": "≥ 5"}, {"binder": "B15", "fold lower binding affinity than TAVO167127": "≥ 5"}, {"binder": "B16", "fold lower binding affinity than TAVO167127": "≥ 5"}, {"binder": "B17", "fold lower binding affinity than TAVO167127": "≥ 5"}, {"binder": "B18", "binding result": "binds"}]}]}
